Target: T1, human Met-Fc chimera (human, UniProt P08581 25-932)
T1 chain: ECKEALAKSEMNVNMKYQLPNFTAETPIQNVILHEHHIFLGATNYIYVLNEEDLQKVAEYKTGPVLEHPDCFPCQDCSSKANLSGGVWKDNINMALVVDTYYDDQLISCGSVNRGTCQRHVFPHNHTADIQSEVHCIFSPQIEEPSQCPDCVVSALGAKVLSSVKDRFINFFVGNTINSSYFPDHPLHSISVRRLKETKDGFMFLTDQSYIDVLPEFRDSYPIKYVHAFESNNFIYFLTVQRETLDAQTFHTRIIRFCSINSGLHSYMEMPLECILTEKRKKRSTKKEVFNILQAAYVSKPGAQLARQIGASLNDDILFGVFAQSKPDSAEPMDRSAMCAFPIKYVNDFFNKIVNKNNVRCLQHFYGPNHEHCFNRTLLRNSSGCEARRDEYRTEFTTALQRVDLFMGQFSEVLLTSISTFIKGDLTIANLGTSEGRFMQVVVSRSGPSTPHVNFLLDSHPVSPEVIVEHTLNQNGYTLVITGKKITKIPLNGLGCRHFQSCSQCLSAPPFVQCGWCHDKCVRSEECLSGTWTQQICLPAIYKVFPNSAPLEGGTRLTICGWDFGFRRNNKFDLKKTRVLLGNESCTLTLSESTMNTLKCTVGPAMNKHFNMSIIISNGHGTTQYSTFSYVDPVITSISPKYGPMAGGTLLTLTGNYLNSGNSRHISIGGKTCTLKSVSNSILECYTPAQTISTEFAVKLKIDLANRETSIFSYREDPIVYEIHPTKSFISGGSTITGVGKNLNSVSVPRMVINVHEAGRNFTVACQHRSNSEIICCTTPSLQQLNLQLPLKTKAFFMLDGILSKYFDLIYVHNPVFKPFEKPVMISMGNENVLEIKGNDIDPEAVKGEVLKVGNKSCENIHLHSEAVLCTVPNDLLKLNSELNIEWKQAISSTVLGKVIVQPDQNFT
Experiment: ELISA

B1: hOA-DN30-cl04H08 (antibody)
light: DIVLTQSPASLAVSLGERATINCKASQSVDYDGGSYMSWYQQRPGQPPKLLIYAASNLESGVPDRFSGSGSGTDFTLTIHSLQAEDVATYYCQQSYEDPLTFGGGTKVEIKRTVAAPSVFIFPPSDEQLKSGTASVVCLLNNFYPREAKVQWKVDNALQSGNSQESVTEQDSKDSTYSLSSTLTLSKADYEKHKVYACEVTHQGLSSPVTKSFNRGEC
heavy: not shown
chain: not shown
- Kd: 0.686 nM

B2: MvDN30 (Fab, V domains shown)
VH: QVQLQQPGTELVKPGASVKLSCKASGYTFTSYWIHWVKQRPGQGLEWIGEINPSSGRTNYNEKFKNKVTVTVDKSSTTAYMQLSNLTSEDSAVYYCASRGYWGQGTTLTVSS
VL: DIVLTQSPASLAVSLGQRATISCKASQSVDYDGGSYMSWFQQRPGQPPKLLISAASNLESGIPARFSGSGSGTDFTLNIHPVEEEDVATYYCQQSYEDPLTFGAGTKVEIK
- Kd: 0.21 nM

From patent US20210395372A1 (published 2021)
